This series deals with the molecule itself. In words: crystal structure.

B1: BchL (L-protein of dark-operative protochlorophyllide oxidoreductase, DPOR), wild type (enzyme, Rhodobacter sphaeroides, UniProt Q9RFD6 1-297, looked up)
chain: MSPKDLTIPTGADGEGSVQVHLDEADKITGAKVFAVYGKGGIGKSTTSSNLSAAFSILGKRVLQIGCDPKHDSTFTLTGSLVPTVIDVLKDVDFHPEELRPEDFVFEGFNGVMCVEAGGPPAGTGCGGYVVGQTVKLLKQHHLLDDTDVVIFDVLGDVVCGGFAAPLQHADQAVVVTANDFDSIYAMNRIIAAVQAKSKNYKVRLAGCVANRSRATDEVDRFCKETNFRRLAHMPDLDAIRRSRLKKKTLFEMDEDQDVLAARAEYIRLAESLWRGLDPIDPHSLPDRDIFELLGFD
In general, stoichiometry N refers to a count of units in the complex or per binding partner. Turning to B1, the “stoichiometry N” value was 2.
